# Experimental data reported in a protein production outcome set (Wang et al. 2014).
# Test: label from the status in PepcDB records
row,Sequence,protein production
1,MAEFLHRFAQGFAALNKDNLDQVAELYSEDVSFSDPMHDIHGLAAMQRYFAELYANVRDLHFDFHAFDEVRPGEGYLVWTMSYSHPRLAGGRTIRVEGCSHLKWRDKVYRHRDYFDAGALLYEHLP,failed
2,MAEFTHLVNERRSASNFLSGHPITKEDLNEMFELVALAPSAFNLQHTKYVTVLDQDVKEKLKQAANGQYKVVSSSAVLLVLGDKQAYQQAADIYEGLKVLGILNKQEYDHMVQDTVSFYENRGEQFKRDEAIRNASLSAMMFMLSAAAAGWDTCPMIGFDAEAVKRILNIDDQFEVVMMITIGKEKTESRRPRGYRKPVNEFVEYM,not failed
3,MAEHAPHFTITPLGGLGEIGLNCQVWSTADSTVLIDCGLMFPDDYHLGVDVVIPRFDHILQQRDKVRGIILTHGHEDHIGALPWLVPHLRGIPIFGSRFTLALVEHKLREHGLADRVEFVPVTPGTPLALGDMTFHFLPVCHSIIEGYAVGVETPVGRVLHTGDFKIDPHPLEGSGTDLDLFRSFAGDEGVRLLLSDSTNIEREGHSLPEREILSSFRHIFTEAQGRIVITLFSSHIQRIQEVFDLAAEFGRTVVVSGRSLMTNIELAREHGFLRVPPALHMDAAGLPPVADRDMVLLVTGSQGEPLSALSRITMGEHKHLTIHEGDTVVMSSRIIPGNARAITRLINQIYRLGAEVYYDKFRAIHASGHAHRDELRAMIETMRPQCFVPVHGEYRHLVKHARLAQECGVAPERAFILENGDPLTLLPQGVRLGERIHVESILVDGKGVGDVGHSVLKERHILGGEGMVIVVLVVDEVTWDVLHGPEMLSKGFVFEQHYNHVLEDAKCIVLDIFENIPPGETERLQDRIRSALRRFFRKVLERDPIVVPVITTI,failed
4,MAEHIITLVLSGERLDVTTSTPFVVALRDLLYEGDWELLKEDMKKKENIMKEVQTCEKLEKVVHLDETVYEPLIFPEFQEWLREENITPKDFKNVSLKGLYDLALEYADRNLYDIAHDIIKFMLDIDENYAPAYELKGSLLVEQGKIEEGIKFLDKAVEIDPWLVQAYASLGEAYYNLGDYEKAIHYWERELEYNPNDKITYFMITEAYYEMNRKDLAVKTLERLLEIDPDNIPALYQLSQLYRELGNEEKAREMEEKIMNCKPKYPTELEPWARVMLKHGRYKEVAEELEKIVESSPLNTLARLLLVVPYVKLGQIDKAREILDDIGQSNFWYYYGKKEILDELLTEEEKRACGIS,failed
5,MAEILRAENIKKVIRGYEILKGISLSVKKGEFVSIIGASGSGKSTLLYILGLLDAPTEGKVFLEGKEVDYTNEKELSLLRNRKLGFVFQFHYLIPELTALENVIVPMLKMGKPKKEAKERGEYLLSELGLGDKLSRKPYELSGGEQQRVAIARALANEPILLFADEPTGNLDSANTKRVMDIFLKINEGGTSIVMVTHERELAELTHRTLEMKDGKVVGEITRV,not failed
6,MAEKLLHTAESDAGIGSWVLHMESGRLEWSQAVHDIFGTDSATFDATEDAYFQRVHPDDRARVRRELDRHVLGDRPFDVEYRIVRPDGQVRELLERNHIQRQASGQVDHLWGTVIDMTEHKQ,not failed
7,MAEKNAYTVAQLADEYFERMIAGRWKHPNIVRSRIEKDIKPAIGSLKVEDVKPRHIDDVLKAVMKRGAPSIANDTLRWLKRMFNYAIKRHIIEYNPAAAFDPGDAGGKEKSLEHHHHHH,not failed
8,MAEKSCSLTEFVGTAIGDTLGLVIANVDTALLDAMKLEKRYRSIGILGARTGAGPHIMAADEAVKATNTEVVSIELPRDTKGGAGHGSLIILGGNDVSDVKRGIEVALKELDRTFGDVYGNEAGHIELQYTARASYALEKAFGAPIGRACGIIVGAPASVGVLMADTALKSANVEVVAYSSPAHGTSFSNEAILVISGDSGAVRQAVTSAREIGKTVLATLGSEPKNDRPSYI,not failed
9,MAENAWVRVCALQELPELGARVLDVEGLPPIAIFRTASDQVFALRDRCPHKGGPLSQGIVAGETVTCPLHGWAIALQSGQACAPDVGCAPRYPVKVEAGAVWIVLQPVLQADAVAEPAALEHHHHHH,failed
10,MAENKLGRDIPRKYANQYGVFEGELAHIKSYKESSRQVKPVKPSDDKLLSSIHEAIEKTRLKDGMTISFHHHFREGDYVMNMVLDEIAKMGIKDISIAPSSIANVHEPLIDHIKNGVVTNITSSGLRDKVGAAISEGIMENPVIIRSHGGRARAIATDDIHIDVAFLGAPSSDAYGNANGTRGKTTCGSLGYAMIDAKYADQVVIVTDTLVPYPNTPISIPQTDVDYIVVVDAIGDPEGIAKGATRYTKNPKELLIAEYAAKVITSSPYYKEGFSFQTGTGGASLAVTRFMREQMIKDDIKANFALGGITNAMVELLEEGLVDKILDVQDFDHPSAVSLDRNAEKHYEIDANMYASPLSKGSVINQLDICVLSALEVDTNFNVNVMTGSDGVIRGASGGHCDTAFAAKMSLVISPLVRGRIPTFVDKVNTVITPGTSVDVVVTEVGIAINPNRPDLIEYFKDLKVPQLTIEELKEKAYAIVGNPQPIQYGDKIVALIEYRDGSLIDVVRNVLEHHHHHH,not failed
11,MAEPGGHEGPASTQRAKVCETHTAMVFFVEDRVYKRKKPVDLGFLDYTTRSSRRAVCEREIELNRRFAPDVYLGLGELRTPGEQEAEPLVVMRRMPDDRRLSHLVRTGAPVADDLRAVARHLAAWHSAAPRGPAIAEQGTRDALAARWEASFTQVDVLAAKGPTRDEAGEVERLVRRYLAGRKPLFGLRIEQGRVLDGHGDLLADDVFCLGDGPRILDCLEFDDALRYVDGLDDAAFLAMDLESLGAPESAAFFLAQYGEYSGDPAPPSLWHHYVAYRAFVRAKVSLIQARQGAPGAHATARRLVRMALRHLRASAVGLTLVAGLPGTGKSTLSGALADRLGAVLLSSDRLRKEMAGLSPQQTASADYGEGLYTPEWTARTYAELLDRAAALLALGESVVLDATWIDSAQREAARHTAESAGADLVALHCHVPDDVTAARLSTRAPGASDADLGVAEAMAAEEQPWSGAVGVDTGGSLEAAVGQALAAVRPWGSDQAKVFRRPYMEPDLEHHHHHH,failed
12,MAESPTEEAATATAGAGAAGPGSSGVAGVVGVSGSGGGFGPPFLPDVWAAAAAAGGAGGPGSGLAPLPGLPPSAAAHGAALLSHWDPTLSSDWDGERTAPQCLLRIKRDIMSIYKEPPPGMFVVPDTVDMTKIHALITGPFDTPYEGGFFLFVFRCPPDYPIHPPRVKLMTTGNNTVRFNPNFYRNGKVCLSILGTWTGPAWSPAQSISSVLISIQSLMTENPYHNEPGFEQERHPGDSKNYNECIRHETIRVAVCDMMEGKCPCPEPLRGVMEKSFLEYYDFYEVACKDRLHLQGQTMQDPFGEKRGHFDYQSLLMRLGLIRQKVLERLHNENAEMDSDSSSSGTETDLHGSLRV,failed
13,MAESTQMEVETATEGTVPLPPKPTFKPLKAHEMSDGKVQFRKIAVPPNRYSPLKKAWLDIYTPIYDQMKVDIRMNLKARKVELKTRADTPDISNLQKSADFVHAFMLGFDIPDAISLLRMDELYVESFEIKDVKTLKGEHLSRAIGRLSGKGGKTKFAIENSTKTRIVIADTRIHILGAFSNIKVARSSLCSLIMGSPAGKVYSKLRSVSARLNE,failed
14,MAETNTATSAVNAQITDAVTQVNTKVVGETPAMAMGNLLMSTSHALSNTAHNATAAQQQGQITMQAATVQGVNSLMSVSSAVIGRSSEEVIEKG,failed
15,MAFAEGALDALKVAFQEGARSLVLLSPVLFRDALLSARLGALRFGLERGGVEGFARVGRALFFGALSAGSEEVYEAWKEGLSEAGLWRWLGRLEALADERRWLRGTAARVLVVQGALDAFTPPLHGAKVADFAKGEALRFVVDEAGHLVPWEAQEEVRDLVADFLLGEGFRPLPGGLAL,failed
16,MAFASLFTLPDYIAAVLDDVALMTKAAAKKTAGVAGDDLAPNANRVTGVSAERELPIVWPVAKGSFANKPVLVSAALLLSAFLPQLITPLLTAGGIYLCFEGVEKLLHKFLHRHDAHDDGGETAVNEQAKIKGAIRTDFILSAEIIIIALCVVEQYSLMTRSLVMAAIGIGMTVLVYGIVAVIVKLDDLGMLLMRRPQPRPFARFPARATLERWLDRVFRQPRCRAAFRFDCLRPALSLMNRFGRH,failed
17,MAFLTNDDVVLICDKNYDCPTKIQSVRQKDTTCVAFRPWSQTCEFAVGCAAGICLWSDSRRLNANRNIRRMMGTHHLQVLQDKGHNYVTSMQWNEDGTILVTAAFGSSHIMLWEPDCQQKIRLIPNPKSLGSFSLLRFSPDFHVLFCASCDAGASLCQLNRSKWKLKQILGQQRIQSAVWTTCGSTLLYACYGSTRVYSCTSDGEDSVFLRPQSIWRVQLIMDLQLVTTCAGQRLCCGEPQCLAMDPLGIYMASIFKEQSFVLLCILHTSRWGNVKLLPVEFIYCDMDGDQYPAYISFGVLKAEIRFLIIAWNTGHFQRYDITAQCFRDAQLYHNIN,failed
18,MAFVVNGNEYNLAYYLTDEIYPKWATFIQSISLPQDEKASLFATNQEACRKDVERAFGVLQARFAIVKHPALIWDKIKIGNIMRACIILHNMIVEDERDGYTQYDVSDFAHPESASSSQVDFTYSTDMPSNLGNMMATRTRLRDRTKHEHLKADLVEHIWQKFGPIQA,failed
19,MAGAITHDHAAAAQGRQGGPLIVTEDVELLDDLLRLCAAAGARPEVHHTVPDGRGTWEAAPLVLVGDDAARRVRGAARRRGVVLVGRDQDDSGVWRRAVEIGADHVLLLPDGEQWLVDRIADVAEGVGRPALTVGVIGGRGGAGASTLACALAVTSARQGRRTLLVDADPLGGGLDVLLGGETAEGLRWPAFAASRGRVGGGALEESLPELHALRVLSWDRGDAVAVPPQAVRAVLAAARRRGGAVVVDLPRRVDEGAAEALAQVDLGVLVVPAELRAIAAAARVASAAGMVLGDLRVAVRGPYAPGLDDREVARLLGLPLLGEVPAEPPVPDGGVPPGGAARGPLARFCAVFWDRALVEAGGVLEHHHHHH,failed
20,MAGATDQRRQEVLRAIVADYIASQEPVGSKALLERHNLKVSSATIRNDMAVLESEGYIVQQHASSGRIPTEKAYRTFVDSINDIKPLSVAERRAILGFLERGVDLEDVLKRSVQLLSQLTRQAAVIQLPNLNVSRVKHCE,failed
21,MAGEFRLLSHLCSRGSKVGELAQDTRTSLKTSWYLLGPAFVAAIAYVDPGNVAANVSSGAQFGYLLLWVIVAANVMAALVQYLSAKLGLVTGRSLPEAIGKRMGRPARLAYWAQAEIVAMATDVAEVIGGAIALRIMFNLPLPIGGIITGVVSLLLLTIQDRRGQRLFERVITALLLVIAIGFTASFFVVTPPPNAVLGGLAPRFQGTESVLLAAAIMGATVMPHAVYLHSGLARDRHGHPDPGPQRRRLLRVTRWDVGLAMLIAGGVNAAMLLVAALNMRGRGDTASIEGAYHAVHDTLGATIAVLFAVGLLASGLASSSVGAYAGAMIMQGLLHWSVPMLVRRLITLGPALAILTLGFDPTRTLVLSQVVLSFGIPFAVLPLVKLTGSPAVMGGDTNHRATTWVGWVVAVMVSLLNVMLIYLTVTG,failed
22,MAGGPPNTKAEMEMSLAEELNHGRQGENQEHLVIAEMMELGSRSRGASQKKQKLEQKAAGSASAKRVWNMTATRPKKMGSQLPKPRMLRESGHGDAHLQEYAGNFQGIRFHYDRNPGTDAVAQTSLEEFNVLEMEVMRRQLYAVNRRLRALEEQGATWRHRETLIIAVLVSASIANLWLWMNQ,failed
